From paper PMC6443839

Molecular target: amyloid-β protein (Aβ) produced from human APP770 bearing the Swedish mutation (APPswe) in rat hippocampal neurons (human)
Experiment: SDS-PAGE with western blot

Question: How did the stoichiometry N turn out when “amyloid-β protein (Aβ) produced from human APP770 bearing the Swedish mutation (APPswe) in rat hippocampal neurons (peptide)” was run?
Answer: 3
